B1: 2M8U (parent)
chain: TKAQVIEAFKVFDRDGNGYVTVDYLRKVLNELGDMMPADEIEEMIYEADPQNSGYVQYETFVGMLFL

Variants of: B1
Assay: folding stability dG (cDNA display proteolysis); higher = more stable
Details: PBS, room temperature

| Variant | folding stability dG |
| --- | --- |
| TKAQVIEAFKVFDRDGNGYVTVDYLRKVLNELGDMMPADEIEEMIYEADPQNSGRVQYETFVGMLFL [Y55R] | 3.37 kcal/mol |
| TKAQVIEAFKVFDRDGNGYVTVDYLRKVLNELGDMMPADEIEEMIYEADPQNSGSVQYETFVGMLFL [Y55S] | 3.25 kcal/mol |
| TKAQVIEAFKVFDRDGNGYVTVDYLRKVLNELGDMMPADEIEEMIYEADPQNSGTVQYETFVGMLFL [Y55T] | 3.11 kcal/mol |
| TKAQVIEAFKVFDRDGNGYVTVDYLRKVLNELGDMMPADEIEEMIYEADPQNSGVVQYETFVGMLFL [Y55V] | 3.44 kcal/mol |
| TKAQVIEAFKVFDRDGNGYVTVDYLRKVLNELGDMMPADEIEEMIYEADPQNSGWVQYETFVGMLFL [Y55W] | 3.55 kcal/mol |
| TKAQVIEAFKVFDRDGNGYVTVDYLRKVLNELGDMMPADEIEEMIYEADPQNSGYAQYETFVGMLFL [V56A] | 2.7 kcal/mol |
| TKAQVIEAFKVFDRDGNGYVTVDYLRKVLNELGDMMPADEIEEMIYEADPQNSGYCQYETFVGMLFL [V56C] | 2.17 kcal/mol |
| TKAQVIEAFKVFDRDGNGYVTVDYLRKVLNELGDMMPADEIEEMIYEADPQNSGYDQYETFVGMLFL [V56D] | 2.39 kcal/mol |
| TKAQVIEAFKVFDRDGNGYVTVDYLRKVLNELGDMMPADEIEEMIYEADPQNSGYEQYETFVGMLFL [V56E] | 2.33 kcal/mol |
| TKAQVIEAFKVFDRDGNGYVTVDYLRKVLNELGDMMPADEIEEMIYEADPQNSGYFQYETFVGMLFL [V56F] | 2.62 kcal/mol |
| TKAQVIEAFKVFDRDGNGYVTVDYLRKVLNELGDMMPADEIEEMIYEADPQNSGYGQYETFVGMLFL [V56G] | 2.62 kcal/mol |
| TKAQVIEAFKVFDRDGNGYVTVDYLRKVLNELGDMMPADEIEEMIYEADPQNSGYHQYETFVGMLFL [V56H] | 2.04 kcal/mol |
| TKAQVIEAFKVFDRDGNGYVTVDYLRKVLNELGDMMPADEIEEMIYEADPQNSGYIQYETFVGMLFL [V56I] | 3.69 kcal/mol |
| TKAQVIEAFKVFDRDGNGYVTVDYLRKVLNELGDMMPADEIEEMIYEADPQNSGYKQYETFVGMLFL [V56K] | 1.78 kcal/mol |
| TKAQVIEAFKVFDRDGNGYVTVDYLRKVLNELGDMMPADEIEEMIYEADPQNSGYLQYETFVGMLFL [V56L] | 3.07 kcal/mol |
| TKAQVIEAFKVFDRDGNGYVTVDYLRKVLNELGDMMPADEIEEMIYEADPQNSGYMQYETFVGMLFL [V56M] | 2.55 kcal/mol |
| TKAQVIEAFKVFDRDGNGYVTVDYLRKVLNELGDMMPADEIEEMIYEADPQNSGYNQYETFVGMLFL [V56N] | 1.99 kcal/mol |
| TKAQVIEAFKVFDRDGNGYVTVDYLRKVLNELGDMMPADEIEEMIYEADPQNSGYPQYETFVGMLFL [V56P] | 1.86 kcal/mol |
| TKAQVIEAFKVFDRDGNGYVTVDYLRKVLNELGDMMPADEIEEMIYEADPQNSGYQQYETFVGMLFL [V56Q] | 1.96 kcal/mol |
| TKAQVIEAFKVFDRDGNGYVTVDYLRKVLNELGDMMPADEIEEMIYEADPQNSGYRQYETFVGMLFL [V56R] | 2.24 kcal/mol |
| TKAQVIEAFKVFDRDGNGYVTVDYLRKVLNELGDMMPADEIEEMIYEADPQNSGYSQYETFVGMLFL [V56S] | 2.17 kcal/mol |
| TKAQVIEAFKVFDRDGNGYVTVDYLRKVLNELGDMMPADEIEEMIYEADPQNSGYTQYETFVGMLFL [V56T] | 2.14 kcal/mol |
| TKAQVIEAFKVFDRDGNGYVTVDYLRKVLNELGDMMPADEIEEMIYEADPQNSGYWQYETFVGMLFL [V56W] | 2.49 kcal/mol |
| TKAQVIEAFKVFDRDGNGYVTVDYLRKVLNELGDMMPADEIEEMIYEADPQNSGYYQYETFVGMLFL [V56Y] | 2.29 kcal/mol |
| TKAQVIEAFKVFDRDGNGYVTVDYLRKVLNELGDMMPADEIEEMIYEADPQNSGYVAYETFVGMLFL [Q57A] | 3.31 kcal/mol |
| TKAQVIEAFKVFDRDGNGYVTVDYLRKVLNELGDMMPADEIEEMIYEADPQNSGYVCYETFVGMLFL [Q57C] | 3.25 kcal/mol |
| TKAQVIEAFKVFDRDGNGYVTVDYLRKVLNELGDMMPADEIEEMIYEADPQNSGYVDYETFVGMLFL [Q57D] | 3.25 kcal/mol |

| Variant | folding stability dG |
| --- | --- |
| TKAQVIEAFKVFDRDGNGYVTVDYLRKVLNELGDMMPADEIEEMIYEADPQNSGYVEYETFVGMLFL [Q57E] | 3.56 kcal/mol |
| TKAQVIEAFKVFDRDGNGYVTVDYLRKVLNELGDMMPADEIEEMIYEADPQNSGYVFYETFVGMLFL [Q57F] | 3.62 kcal/mol |
| TKAQVIEAFKVFDRDGNGYVTVDYLRKVLNELGDMMPADEIEEMIYEADPQNSGYVGYETFVGMLFL [Q57G] | 2.69 kcal/mol |
| TKAQVIEAFKVFDRDGNGYVTVDYLRKVLNELGDMMPADEIEEMIYEADPQNSGYVHYETFVGMLFL [Q57H] | 3.85 kcal/mol |
| TKAQVIEAFKVFDRDGNGYVTVDYLRKVLNELGDMMPADEIEEMIYEADPQNSGYVIYETFVGMLFL [Q57I] | 2.96 kcal/mol |
| TKAQVIEAFKVFDRDGNGYVTVDYLRKVLNELGDMMPADEIEEMIYEADPQNSGYVKYETFVGMLFL [Q57K] | 3.2 kcal/mol |
| TKAQVIEAFKVFDRDGNGYVTVDYLRKVLNELGDMMPADEIEEMIYEADPQNSGYVLYETFVGMLFL [Q57L] | 3.08 kcal/mol |
| TKAQVIEAFKVFDRDGNGYVTVDYLRKVLNELGDMMPADEIEEMIYEADPQNSGYVMYETFVGMLFL [Q57M] | 3.27 kcal/mol |
| TKAQVIEAFKVFDRDGNGYVTVDYLRKVLNELGDMMPADEIEEMIYEADPQNSGYVNYETFVGMLFL [Q57N] | 3.61 kcal/mol |
| TKAQVIEAFKVFDRDGNGYVTVDYLRKVLNELGDMMPADEIEEMIYEADPQNSGYVPYETFVGMLFL [Q57P] | 2.64 kcal/mol |
| TKAQVIEAFKVFDRDGNGYVTVDYLRKVLNELGDMMPADEIEEMIYEADPQNSGYVRYETFVGMLFL [Q57R] | 3.13 kcal/mol |
| TKAQVIEAFKVFDRDGNGYVTVDYLRKVLNELGDMMPADEIEEMIYEADPQNSGYVSYETFVGMLFL [Q57S] | 2.71 kcal/mol |
| TKAQVIEAFKVFDRDGNGYVTVDYLRKVLNELGDMMPADEIEEMIYEADPQNSGYVTYETFVGMLFL [Q57T] | 2.41 kcal/mol |
| TKAQVIEAFKVFDRDGNGYVTVDYLRKVLNELGDMMPADEIEEMIYEADPQNSGYVVYETFVGMLFL [Q57V] | 3.1 kcal/mol |
| TKAQVIEAFKVFDRDGNGYVTVDYLRKVLNELGDMMPADEIEEMIYEADPQNSGYVWYETFVGMLFL [Q57W] | 3.18 kcal/mol |
| TKAQVIEAFKVFDRDGNGYVTVDYLRKVLNELGDMMPADEIEEMIYEADPQNSGYVYYETFVGMLFL [Q57Y] | 3.51 kcal/mol |
| TKAQVIEAFKVFDRDGNGYVTVDYLRKVLNELGDMMPADEIEEMIYEADPQNSGYVQAETFVGMLFL [Y58A] | 2.11 kcal/mol |
| TKAQVIEAFKVFDRDGNGYVTVDYLRKVLNELGDMMPADEIEEMIYEADPQNSGYVQCETFVGMLFL [Y58C] | 2.07 kcal/mol |
| TKAQVIEAFKVFDRDGNGYVTVDYLRKVLNELGDMMPADEIEEMIYEADPQNSGYVQDETFVGMLFL [Y58D] | 1.3 kcal/mol |
| TKAQVIEAFKVFDRDGNGYVTVDYLRKVLNELGDMMPADEIEEMIYEADPQNSGYVQEETFVGMLFL [Y58E] | 1.4 kcal/mol |
| TKAQVIEAFKVFDRDGNGYVTVDYLRKVLNELGDMMPADEIEEMIYEADPQNSGYVQFETFVGMLFL [Y58F] | 2.81 kcal/mol |
| TKAQVIEAFKVFDRDGNGYVTVDYLRKVLNELGDMMPADEIEEMIYEADPQNSGYVQGETFVGMLFL [Y58G] | 1.62 kcal/mol |
| TKAQVIEAFKVFDRDGNGYVTVDYLRKVLNELGDMMPADEIEEMIYEADPQNSGYVQHETFVGMLFL [Y58H] | 1.99 kcal/mol |
| TKAQVIEAFKVFDRDGNGYVTVDYLRKVLNELGDMMPADEIEEMIYEADPQNSGYVQIETFVGMLFL [Y58I] | 3.25 kcal/mol |
| TKAQVIEAFKVFDRDGNGYVTVDYLRKVLNELGDMMPADEIEEMIYEADPQNSGYVQKETFVGMLFL [Y58K] | 1.56 kcal/mol |
| TKAQVIEAFKVFDRDGNGYVTVDYLRKVLNELGDMMPADEIEEMIYEADPQNSGYVQLETFVGMLFL [Y58L] | 2.51 kcal/mol |
| TKAQVIEAFKVFDRDGNGYVTVDYLRKVLNELGDMMPADEIEEMIYEADPQNSGYVQMETFVGMLFL [Y58M] | 2.46 kcal/mol |

| Variant | folding stability dG |
| --- | --- |
| TKAQVIEAFKVFDRDGNGYVTVDYLRKVLNELGDMMPADEIEEMIYEADPQNSGYVQNETFVGMLFL [Y58N] | 1.27 kcal/mol |
| TKAQVIEAFKVFDRDGNGYVTVDYLRKVLNELGDMMPADEIEEMIYEADPQNSGYVQPETFVGMLFL [Y58P] | 1.71 kcal/mol |
| TKAQVIEAFKVFDRDGNGYVTVDYLRKVLNELGDMMPADEIEEMIYEADPQNSGYVQQETFVGMLFL [Y58Q] | 1.77 kcal/mol |
| TKAQVIEAFKVFDRDGNGYVTVDYLRKVLNELGDMMPADEIEEMIYEADPQNSGYVQRETFVGMLFL [Y58R] | 1.77 kcal/mol |
| TKAQVIEAFKVFDRDGNGYVTVDYLRKVLNELGDMMPADEIEEMIYEADPQNSGYVQSETFVGMLFL [Y58S] | 2.04 kcal/mol |
| TKAQVIEAFKVFDRDGNGYVTVDYLRKVLNELGDMMPADEIEEMIYEADPQNSGYVQTETFVGMLFL [Y58T] | 2.02 kcal/mol |
| TKAQVIEAFKVFDRDGNGYVTVDYLRKVLNELGDMMPADEIEEMIYEADPQNSGYVQVETFVGMLFL [Y58V] | 2.67 kcal/mol |
| TKAQVIEAFKVFDRDGNGYVTVDYLRKVLNELGDMMPADEIEEMIYEADPQNSGYVQWETFVGMLFL [Y58W] | 3.45 kcal/mol |
| TKAQVIEAFKVFDRDGNGYVTVDYLRKVLNELGDMMPADEIEEMIYEADPQNSGYVQYATFVGMLFL [E59A] | 3.15 kcal/mol |
| TKAQVIEAFKVFDRDGNGYVTVDYLRKVLNELGDMMPADEIEEMIYEADPQNSGYVQYCTFVGMLFL [E59C] | 3.25 kcal/mol |
| TKAQVIEAFKVFDRDGNGYVTVDYLRKVLNELGDMMPADEIEEMIYEADPQNSGYVQYDTFVGMLFL [E59D] | 2.99 kcal/mol |
| TKAQVIEAFKVFDRDGNGYVTVDYLRKVLNELGDMMPADEIEEMIYEADPQNSGYVQYFTFVGMLFL [E59F] | 3.54 kcal/mol |
| TKAQVIEAFKVFDRDGNGYVTVDYLRKVLNELGDMMPADEIEEMIYEADPQNSGYVQYGTFVGMLFL [E59G] | 2.76 kcal/mol |
| TKAQVIEAFKVFDRDGNGYVTVDYLRKVLNELGDMMPADEIEEMIYEADPQNSGYVQYHTFVGMLFL [E59H] | 3.24 kcal/mol |
| TKAQVIEAFKVFDRDGNGYVTVDYLRKVLNELGDMMPADEIEEMIYEADPQNSGYVQYITFVGMLFL [E59I] | 3.41 kcal/mol |
| TKAQVIEAFKVFDRDGNGYVTVDYLRKVLNELGDMMPADEIEEMIYEADPQNSGYVQYKTFVGMLFL [E59K] | 3.23 kcal/mol |
| TKAQVIEAFKVFDRDGNGYVTVDYLRKVLNELGDMMPADEIEEMIYEADPQNSGYVQYLTFVGMLFL [E59L] | 3.47 kcal/mol |
| TKAQVIEAFKVFDRDGNGYVTVDYLRKVLNELGDMMPADEIEEMIYEADPQNSGYVQYMTFVGMLFL [E59M] | 3.93 kcal/mol |
| TKAQVIEAFKVFDRDGNGYVTVDYLRKVLNELGDMMPADEIEEMIYEADPQNSGYVQYNTFVGMLFL [E59N] | 2.91 kcal/mol |
| TKAQVIEAFKVFDRDGNGYVTVDYLRKVLNELGDMMPADEIEEMIYEADPQNSGYVQYPTFVGMLFL [E59P] | 2.47 kcal/mol |
| TKAQVIEAFKVFDRDGNGYVTVDYLRKVLNELGDMMPADEIEEMIYEADPQNSGYVQYQTFVGMLFL [E59Q] | 3.11 kcal/mol |
| TKAQVIEAFKVFDRDGNGYVTVDYLRKVLNELGDMMPADEIEEMIYEADPQNSGYVQYRTFVGMLFL [E59R] | 3.06 kcal/mol |
| TKAQVIEAFKVFDRDGNGYVTVDYLRKVLNELGDMMPADEIEEMIYEADPQNSGYVQYSTFVGMLFL [E59S] | 3.05 kcal/mol |
| TKAQVIEAFKVFDRDGNGYVTVDYLRKVLNELGDMMPADEIEEMIYEADPQNSGYVQYTTFVGMLFL [E59T] | 3.12 kcal/mol |
| TKAQVIEAFKVFDRDGNGYVTVDYLRKVLNELGDMMPADEIEEMIYEADPQNSGYVQYVTFVGMLFL [E59V] | 3.68 kcal/mol |
| TKAQVIEAFKVFDRDGNGYVTVDYLRKVLNELGDMMPADEIEEMIYEADPQNSGYVQYWTFVGMLFL [E59W] | 3.37 kcal/mol |
